In the series the test system is Spo11 (Saccharomyces cerevisiae). Kind of series: cell_activity. Conditions: wild-type Spo11 without Gal4BD; DSBs barely detectable.

Activity (% DSB frequency) data for one substance are collected here from US20050221488.

In turn, GAL2 promoter UASGAL sites registered an activity (% DSB frequency) of less than 0.6.
